The values that follow are results of earlier work, collected in publication PMC5040164.

This data set concerns the target SAS1B (Mus musculus) (UniProt Q6HA09).
Chain of UniProt Q6HA09 (Q6HA09 24-435): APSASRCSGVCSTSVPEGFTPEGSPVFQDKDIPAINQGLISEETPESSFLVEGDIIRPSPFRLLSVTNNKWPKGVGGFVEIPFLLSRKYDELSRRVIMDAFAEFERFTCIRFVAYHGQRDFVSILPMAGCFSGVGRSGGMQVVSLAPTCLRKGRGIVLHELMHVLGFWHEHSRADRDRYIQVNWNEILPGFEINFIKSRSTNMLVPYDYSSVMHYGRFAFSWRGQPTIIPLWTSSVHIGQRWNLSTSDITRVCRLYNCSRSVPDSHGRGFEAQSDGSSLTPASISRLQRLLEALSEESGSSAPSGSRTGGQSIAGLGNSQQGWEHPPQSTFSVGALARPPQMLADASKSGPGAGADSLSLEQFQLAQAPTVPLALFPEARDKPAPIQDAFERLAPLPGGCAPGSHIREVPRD

The term Kd denotes a measure of binding affinity in units of concentration. Turning to SLLP1 (from UniProt Q9D9X8), the dissociation constant Kd was 320 pM.
